Measurements reported in the RNAGym collection of RNA variant scans (doi:10.7554/elife.90254).

B1: LINE1-full (parent)
chain: UACGUAGGUGGUUUUCCCCUGAUAGUGCUAAGGGGGCCUGGAAGUUUGGACUGGGCAGAGCUCAACACAGCGUGGCAAAGUGGCUGUGGCUAGACUGCCUCUCUGGAUUCCUCGUCACUCAGCAGGGCAUCUCUGAGAGAAAUGCC

Variants of: B1
Test: self-cleavage, relative activity (ratio to wild type); higher = more cleavage; in vitro, sequencing; the parent is a self-cleaving ribozyme

Row | Variant | self-cleavage
1 | UACGUAGGUGGUCUUCCCCUGAUAGUGCUAAGGGGGCCUGGAAGUUUGGACUGGGCAGAGCUCAACACAGCGUGGCAAAGUGGCUGUGGCUAGACUGCCUCUCUGGAUUCCGCGUCACUCAGCAGGGCAUCUCUGAGAGAAAUGCC [U13C U112G] | 1.13
2 | UACGUAGGUGGUUUUCCCCCGAUAGUGCUAAGGGGGCCUGGAAGUUUGGACUGGGCAGAGCUCAACACAGCGUGGCAAAGUGGCUGUGGCUAGACUGCCUCUCUGGAUUCCUCGUCACUCAGCAGGGCAUCACUGAGAGAAAUGCC [U20C U132A] | 1.63
3 | UACGUAGGUGGUUUUCCCCUGAUAGUGCUAAGGGGGCCUGGAAGUUUGGACUGGGCAGAGCUCAACACAGCGUGGCAAAGUGGCUGUGGCUAGACUGCCUCUCUGGACUCCUCGUCGCUCAGCAGGGCAUCUCUGAGAGAAAUGCC [U108C A117G] | 1.62
4 | UACGUAGGUGGUUUUCCCCUGAAAGUGCUAAGGGGGCCUGGAAGUUUGGACUGGGCAGAGCUCAACACAGCGUGGCAAAGUGGCUGUGGCUAGACUGCCUCUCUGGAUUCCUCGUCCCUCAGCAGGGCAUCUCUGAGAGAAAUGCC [U23A A117C] | 1.6
5 | UACGUAGGUGGUUUUCCCCUGAUAGUGCAAAGGGGGCCUGGAAGUUUGGACUGGGCAGAGCUCAACACAGCGUGGCAAAGUGGCUGUGGCUAGGCUGCCUCUCUGGAUUCCUCGUCACUCAGCAGGGCAUCUCUGAGAGAAAUGCC [U29A A94G] | 0.54
6 | UACUUAGGUGGUCUUCCCCUGAUAGUGCUAAGGGGGCCUGGAAGUUUGGACUGGGCAGAGCUCAACACAGCGUGGCAAAGUGGCUGUGGCUAGACUGCCUCUCUGGAUUCCUCGUCACUCAGCAGGGCAUCUCUGAGAGAAAUGCC [G4U U13C] | 0.93
7 | UACGUAGGUGGUUUUCCCCUGAUAGUGCUAAGGGAGCCUGGAAGUUUGGACUGGGCAGAGCUCAACACAGCGUGGCAAAGUGGCUGUGGCUAGACUGCCUCUCUGGAUUCCUCGUCUCUCAGCAGGGCAUCUCUGAGAGAAAUGCC [G35A A117U] | 0.56
8 | UACGUAGGUGGUUUUCCCCUGAUAGUGCUAAGGGGGCCUGGAAGUUUGGACUGGGCAGAGCUCAACACAGCGUGGCAAAGUGCCUGUGGCUAGGCUGCCUCUCUGGAUUCCUCGUCACUCAGCAGGGCAUCUCUGAGAGAAAUGCC [G83C A94G] | 0.17
9 | UACGUAGGUGGUUUUCCCCUGAUAGUGCUUAGGGGGCCUGGAAGUUUGGACUGGGCAGAGCUCAACACAGCGUGGCAAAGUGGCUGUGGCUAGACUGCCUCUCUGGAUUCCUCGUCACUCAGCAGGGCACCUCUGAGAGAAAUGCC [A30U U130C] | 1.05
10 | UACGUAGGUGGUUUUCCCCUGAUAGUGCUAAGGGGGCCUGGAAGUUUGGACUGGGCAGAGCUCAACACAGCGUGGCAAAGUGGCUGAGGCAAGACUGCCUCUCUGGAUUCCUCGUCACUCAGCAGGGCAUCUCUGAGAGAAAUGCC [U87A U91A] | 0.12
11 | UACGUAGGUGGUUUUCCCCUGAUAGUGCUAAGGGGGCCUGGAAGUUUGGACUGGGCAGAGCUCAACACAGCGUGGCAAAGUGGCUGUGGCUAGACUGCCUGUCUGGAUUCCUCGUCACUCAGCAGGGCAUCUCUGAGAGAAAUGCC [C101G] | 1.78
12 | UACGUAGGUGGUUUUCCCCUGAUAGUGCUAAGGGGGCCUGGAAGUUUGGACUGGGCAGAGCUCAACACAGCGUGGCAAAGUGGCUGUGGCUAGACGGCCUCUCUGGAUUCCUCGUCACUCAGCAGGGCAUCUCUGAGAGAAGUGCC [U96G A142G] | 0.17
13 | UACGUAGGUGGUUUUCCCCUGAUAAUGCUAAGGGGGCCUGGAAGUUUGGACUGGGCAGAGCUCAACACAGCGUGGUAAAGUGGCUGUGGCUAGACUGCCUCUCUGGAUUCCUCGUCACUCAGCAGGGCAUCUCUGAGAGAAAUGCC [G25A C76U] | 1.35
14 | AACGUAGGUGGUUUUCCCCUGAUAGUGCUAAGGGGGCCUGGAAGUUUGGACUGGGCAGAGCUCAGCACAGCGUGGCAAAGUGGCUGUGGCUAGACUGCCUCUCUGGAUUCCUCGUCACUCAGCAGGGCAUCUCUGAGAGAAAUGCC [U1A A65G] | 0.07
15 | UACGUAGGUGGUUUUCCCCUGAUAGUGCUAAGGGGGCCUGGAAGUUUGGACUGGGCAGAGCUCAACACAGCGUGGCAAUGUGGCUGUGGCUAGACUGCCUCUCUGGAUUCCUCGUCACUCAGCAGGGCAUCACUGAGAGAAAUGCC [A79U U132A] | 1.83
16 | UACGUAGGUGGUUUUCCCCUGAUAGUGCUAAGGGGGCCUGGGAGUUUGGACUGGGCAGAGCUCAACACAGCGUGGCAAGGUGGCUGUGGCUAGACUGCCUCUCUGGAUUCCUCGUCACUCAGCAGGGCAUCUCUGAGAGAAAUGCC [A42G A79G] | 1.37
17 | UACGUAGGUGGUUUUCCCCUGACAGUGCUAAGGGGGCCCGGAAGUUUGGACUGGGCAGAGCUCAACACAGCGUGGCAAAGUGGCUGUGGCUAGACUGCCUCUCUGGAUUCCUCGUCACUCAGCAGGGCAUCUCUGAGAGAAAUGCC [U23C U39C] | 0.87
18 | UACGUAGGUGGUUUUCCCCUGAUAGUGCUAAGGGGACCUGGAAGUUUGGACUGGGCAGAGCUCAACACAGCGUGGCAAAGUGGCUGUGGCUAGACUGCCUCUCUGGAUUCCUCGUCACUCAGCUGGGCAUCUCUGAGAGAAAUGCC [G36A A124U] | 0.31
19 | UACGUAGGUGGUUUUCCCCUGAUAGUGCUAAGGGGGCCCGGAAGUUUGGACUGGGCAGAGCUCAACACAGCGUGGCAAAGUGGCUGUGGCUAGACUGCCUCUCUGGAAUCCUCGUCACUCAGCAGGGCAUCUCUGAGAGAAAUGCC [U39C U108A] | 1.22
20 | UACGUAGGUGGUUUUCCCCUGAUAGUGCCAAGGGGGCCUGGAAGUUUGGACUGGGCAGAGCUCAACACAGCGUGGCAAAGUGGCUGUGGCUAGACUGCCUCUCUGGAUUCCUCGUCACUCAGCAGGGCAUCUCUGAGGGAAAUGCC [U29C A138G] | 1.72
